Measurements: article PMC5611513, “Structure-Based Prototype Peptides Targeting the Pseudomonas aeruginosa Type VI Secretion System Effector as a Novel Antibacterial Strategy” (Frontiers in Cellular and Infection Microbiology, 2017)

System: E. coli BL21 (DE3)
Assay: Cell-toxicity assay, spot growth on LB agar
Assay type: cell-based, Escherichia coli
Settings: E. coli BL21 (DE3), 0.045 mM IPTG, 24 h
Description: Cell-toxicity assay was carried as previously described with minor modification (Jiang et al., [2016]). […] A 2 μl bacterial dilution was spotted onto LB agar plate containing 0.045 mM IPTG. Images were taken after 24 h growth.
(A) Diagrams of TplE, TplE-TplEi and “L” peptide expressing constructs. Expression of vector sequence and “L” peptide mutant with the PelB signal peptide was used as a control. […] A 10-fold serial dilution of overnight culture was spotted on LB agar plates from left to right. The experiments were performed at least 3 times.

Molecule | effect of co-expression of TplEi on TplE-dependent growth inhibition (TplE-TplEi co-expressed) | growth of E. coli on periplasmic expression of TplE (periplasmic-targeted TplE alone)
TplEi: cognate periplasmic immunity protein that neutralizes TplE (protein) CTSFSSSRSSSMDKTGWITHCFGRFLIDLPPDAVINAGYYLWGDRIEYLDDKPTELAARVDRLEQEWRTQRHKSKGNMFLRKIDFGNESVGLLSWSSEVASKTYLLDTYVTSKPTWHVYRWKGKVSVDREQHAVEISRALARNLRSRAPKEIPSEPGFCIDHAYIAGDSFQVERFGVGVTFPEHPGARFEFRSSTGAELNSLLERVDGFVQNMLSTFAGMETLRKGKHPVGSLPGEEYLVAGSDKGQRGYTFMWEVQGKEESLTEPNLTAGLAVLERSNENGKPPPPAFKSDKEALELWDTIVDSIRVRPTSSSPRGGNAGPSPAPKPATPGGQTLGDHYVYEEFLSSLKPKDSWLDDL | repressed the TplE-dependent growth inhibition | –
TplE: H2-T6SS-dependent antibacterial lipolytic toxin (lipase effector) of P. aeruginosa (protein) MSSEPLEPNQDVIIPRSRDSLGRPVYKAQLTRTDNQSEKVALIRQTAPLPVIFIPGIMGTNLRNKADKSEVWRPPNGLWPMDDLFASIGALWTWAWRGPKARQELLKAEQVEVDDQGTIDVGQSGLSEEAARLRGWGKVMRSAYNPVMGLMERRLDNIVSRRELQAWWNDEALSPPGDQGEEQGKVGPIDEEELLRASRYQFDVWCAGYNWLQSNRQSALDVRDYIENTVLPFYQKECGLDPEQMRRMKVILVTHSMGGLVARALTQLHGYERVLGVVHGVQPATGSSTIYHHMRCGYEGIAQVVLGRNAGEVTAIVANSAGALELAPSAEYREGRPWLFLCDAQGQVLKDIDGKPRAYPQNQDPYEEIYKNTTWYGLVPEQNSQYLDMSDKKEGLRVGPRDNFEDLIDSIANFHGELSAAGYHSETYAHYGADDSRHSWRDLIWKGDPTPLETPGATLNDDENGTYNSWFRRGLPTIVQGPLETGNPLDASGSGGDETVPTDSGQAPALAGVKASFRHGSKGKGQANTKRGYEHQESYNDARAQWAALYGVIKITQLADWHPNDKGGT | – | significant inhibition of growth
